The values below come from publication PMC11252000, “MFSD1 with its accessory subunit GLMP functions as a general dipeptide uniporter in lysosomes” (Nature Cell Biology, 2024).

Where a SMILES comes first, the peptide text is derived from it.

Assay [1] has as its target T1, MFSD1 (MFSD1WT, mmMFSD1, MFSD1-strep) (Mus musculus, UniProt Q9DC37).
T1 construct: full length; N-terminal Twin-Strep-tag + HRV 3C site; Expi293F; purified in DDM/CHS; liposomes POPE:POPG:CHS for transport
T1 sequence (Q9DC37 1-464): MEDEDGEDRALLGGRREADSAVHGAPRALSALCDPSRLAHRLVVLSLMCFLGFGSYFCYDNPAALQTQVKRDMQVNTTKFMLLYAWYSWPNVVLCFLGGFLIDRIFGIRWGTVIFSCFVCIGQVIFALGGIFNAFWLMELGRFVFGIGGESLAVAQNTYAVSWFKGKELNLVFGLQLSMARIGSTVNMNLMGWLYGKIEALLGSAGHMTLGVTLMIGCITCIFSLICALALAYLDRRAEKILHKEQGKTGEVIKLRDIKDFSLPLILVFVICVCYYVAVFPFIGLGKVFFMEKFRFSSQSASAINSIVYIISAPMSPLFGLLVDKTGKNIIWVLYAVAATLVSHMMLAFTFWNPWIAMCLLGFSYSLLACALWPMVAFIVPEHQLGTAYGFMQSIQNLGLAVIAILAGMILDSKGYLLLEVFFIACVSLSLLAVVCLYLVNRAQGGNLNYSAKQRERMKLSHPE
Nature of the assay: nanoDSF thermal shift titration. The class given is binding. (In general: DSF heats the sample and reads unfolding from a dye or from intrinsic fluorescence.)

Assay [2] has as its target GLMP + MFSD1 co-complex (co-expressed MFSD1-strep and GLMP-Ct-His-GFP, purified) (mouse) (UniProt Q9DC37).
The target in assay [3] is MFSD1-strep (mouse major facilitator superfamily domain containing 1 protein with N-terminal Twin-Strep-tag) (mouse) (UniProt Q9DC37). Nature of the assay: nanoDSF thermal shift; protein 0.2 mg/ml in 100 mM HEPES pH 7.5, 150 mM NaCl, 0.03% DDM, 0.003% CHS; 5 mM ligand, 30 min at room temperature; 20 to 95 °C at 1 °C/min (Prometheus NT.48).
A further assay has as its target Anserine. Nature of the assay: nanoDSF thermal stability assay. The note with it: 5 mM peptide, n = 3, apo Tm of WT est. 40 °C, parent: est. 40, read off a plot.
The target in a further assay is Ala-His. In words: nanoDSF thermal stability assay. The following applies: 5 mM peptide, n = 3, apo Tm of WT est. 40 °C, parent: est. 40, read off a plot.
The next assay has as its target His-Ser dipeptide. In words: nanoDSF thermal stability assay. The following applies: 5 mM peptide, n = 3, apo Tm of WT est. 40 °C, parent: est. 40, read off a plot.
A further assay has as its target Leu–Ala dipeptide. In words: nanoDSF thermal stability assay. The following applies: 5 mM peptide, n = 3, apo Tm of WT est. 40 °C, parent: est. 47, read off a plot.
The target of the next assay is His–Ala dipeptide. In words: nanoDSF thermal stability assay. The note with it: 5 mM peptide, n = 3, apo Tm of WT est. 40 °C, parent: est. 41, read off a plot.
The target of a further assay is Lys–Val dipeptide. Nature of the assay: nanoDSF thermal stability assay. The following applies: 5 mM peptide, n = 3, apo Tm of WT est. 40 °C, parent: est. 46, read off a plot.
In another assay the target is Pro–Arg dipeptide. Nature of the assay: nanoDSF thermal stability assay. The note with it: 5 mM peptide, n = 3, apo Tm of WT est. 40 °C, parent: est. 49, read off a plot.
Another assay deals with Arg–Pro dipeptide. In words: nanoDSF thermal stability assay. The note with it: 5 mM peptide, n = 3, apo Tm of WT est. 40 °C, parent: est. 42, read off a plot.
The target of the next assay is Ala–Ala dipeptide. Nature of the assay: nanoDSF thermal stability assay. The note with it: 5 mM peptide, n = 3, apo Tm of WT est. 40 °C, parent: est. 41, read off a plot.
The mark [4] stands for this setting: apo Tm of this mutant est. 36 °C.
Where [5] appears, read: apo Tm of this mutant est. 37 °C.
Setting [6] is: apo Tm of this mutant est. 42 °C.
Where [7] appears, read: apo Tm of this mutant est. 47 °C.
Setting [8] is: apo Tm of this mutant est. 39 °C.

MFSD1-strep (mouse major facilitator superfamily domain containing 1 protein with N-terminal Twin-Strep-tag) (from UniProt Q9DC37) Y56A, sequence (Q9DC37 whole entry Y56A, looked up, the tested form may be a part): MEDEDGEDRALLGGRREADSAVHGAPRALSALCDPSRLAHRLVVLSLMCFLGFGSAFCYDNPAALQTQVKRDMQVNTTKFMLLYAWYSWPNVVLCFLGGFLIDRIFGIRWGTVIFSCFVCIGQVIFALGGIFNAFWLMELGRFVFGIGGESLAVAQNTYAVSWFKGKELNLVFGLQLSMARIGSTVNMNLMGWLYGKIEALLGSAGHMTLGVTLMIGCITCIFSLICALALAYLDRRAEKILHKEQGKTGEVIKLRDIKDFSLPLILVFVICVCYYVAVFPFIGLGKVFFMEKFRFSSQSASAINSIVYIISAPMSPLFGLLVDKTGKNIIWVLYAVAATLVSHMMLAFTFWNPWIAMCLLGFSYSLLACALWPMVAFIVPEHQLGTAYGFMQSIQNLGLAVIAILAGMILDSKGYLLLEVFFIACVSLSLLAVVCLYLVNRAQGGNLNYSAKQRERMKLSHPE
MFSD1-strep (mouse major facilitator superfamily domain containing 1 protein with N-terminal Twin-Strep-tag) (from UniProt Q9DC37) W373A, sequence (Q9DC37 whole entry W373A, looked up, the tested form may be a part): as the sequence (Q9DC37 whole entry Y56A, looked up, the tested form may be a part) above, with A56Y, W373A counted along it
MFSD1-strep (mouse major facilitator superfamily domain containing 1 protein with N-terminal Twin-Strep-tag) (from UniProt Q9DC37) Q176K, sequence (Q9DC37 whole entry Q176K, looked up, the tested form may be a part): as the sequence (Q9DC37 whole entry Y56A, looked up, the tested form may be a part) above, with A56Y, Q176K counted along it
MFSD1-strep (mouse major facilitator superfamily domain containing 1 protein with N-terminal Twin-Strep-tag) (from UniProt Q9DC37) Q176E, sequence (Q9DC37 whole entry Q176E, looked up, the tested form may be a part): as the sequence (Q9DC37 whole entry Y56A, looked up, the tested form may be a part) above, with A56Y, Q176E counted along it
MFSD1-strep (mouse major facilitator superfamily domain containing 1 protein with N-terminal Twin-Strep-tag) (from UniProt Q9DC37) Q176A, sequence (Q9DC37 whole entry Q176A, looked up, the tested form may be a part): as the sequence (Q9DC37 whole entry Y56A, looked up, the tested form may be a part) above, with A56Y, Q176A counted along it

In general, Kd refers to a measure of binding affinity in units of concentration. As to `NCCCC[C@H](NC(=O)[C@@H](N)Cc1c[nH]cn1)C(=O)O` [His–Lys] (H-His-Lys-OH), the Kd in assay [1] is 765 ± 136 µM.

With `CC(C)C[C@H](N)C(=O)N[C@@H](C)C(=O)O` [Leu–Ala] (H-Leu-Ala-OH), in [1], the Kd was determined as 2200 ± 420 µM.

Take `CC(C)[C@H](NC(=O)[C@@H](N)CCCCN)C(=O)O` [Lys–Val] (H-Lys-Val-OH): in assay [1], the Kd stood at 4300 ± 600 µM.

As to `N=C(N)NCCC[C@H](NC(=O)[C@@H]1CCCN1)C(=O)O` [Pro–Arg] (H-Pro-Arg-OH), the Kd in assay [1] was determined as 318 ± 66.7 µM.

On to Glu–Ser dipeptide, for which the inhibition of the current evoked by 3 mM Lys–Ala in MFSD1–GLMP oocytes (TEVC, pH 5.0) by 10 mM Glu–Ser applied simultaneously in [2] was 26%.

Usually ΔTm stands for the shift of the melting midpoint relative to a reference. Turning to His–Lys dipeptide, the ΔTm at 5 mM ligand in assay [3] was found to be 12 °C.

With Leu–Leu dipeptide, in assay [3], the thermal shift (ΔTm) at 5 mM ligand was 14 °C.

As to Lys–Ala dipeptide, the KM of the Lys–Ala-evoked inward current in MFSD1–GLMP oocytes (TEVC, −40 mV, pH 5.0) in assay [2] worked out at 2.6 mM.

Regarding “MFSD1-strep (mouse major facilitator superfamily domain containing 1 protein with N-terminal Twin-Strep-tag) (from UniProt Q9DC37) Q176A”, the other: Tm with Anserine (setting [4]) was found to be 36 °C; with Ala-His (setting [4]) it was 36 °C; in the assay with His-Ser dipeptide (setting [4]), 37 °C; with Leu–Ala dipeptide (setting [4]), 48 °C; with His–Ala dipeptide (setting [4]), 42 °C; in the assay with Lys–Val dipeptide (setting [4]), 49 °C. In addition, the other: Tm in the assay with Pro–Arg dipeptide (setting [4]) stood at 59 °C; with Arg–Pro dipeptide (setting [4]), 48 °C; with Ala–Ala dipeptide (setting [4]), 40 °C.

Regarding “MFSD1-strep (mouse major facilitator superfamily domain containing 1 protein with N-terminal Twin-Strep-tag) (from UniProt Q9DC37) Q176E”, the other: Tm came to 40 °C in the assay with Anserine (setting [5]); 40 °C with Ala-His (setting [5]); 40 °C with His-Ser dipeptide (setting [5]); 52 °C with Leu–Ala dipeptide (setting [5]); 44 °C with His–Ala dipeptide (setting [5]); 49 °C with Lys–Val dipeptide (setting [5]). Besides, the other: Tm is 51 °C in the assay with Pro–Arg dipeptide (setting [5]), 48 °C with Arg–Pro dipeptide (setting [5]) and 42 °C with Ala–Ala dipeptide (setting [5]).

As for “MFSD1-strep (mouse major facilitator superfamily domain containing 1 protein with N-terminal Twin-Strep-tag) (from UniProt Q9DC37) Q176K”, the other: Tm with Anserine (setting [6]) was determined as 43 °C; with Ala-His (setting [6]), 43 °C; with His-Ser dipeptide (setting [6]) it was 45 °C; with Leu–Ala dipeptide (setting [6]), 53 °C; with His–Ala dipeptide (setting [6]), 49 °C; with Lys–Val dipeptide (setting [6]), 43 °C. The other: Tm with Pro–Arg dipeptide (setting [6]) turned out to be 42 °C; with Arg–Pro dipeptide (setting [6]), 42 °C; with Ala–Ala dipeptide (setting [6]) it was 46 °C.

Consider “MFSD1-strep (mouse major facilitator superfamily domain containing 1 protein with N-terminal Twin-Strep-tag) (from UniProt Q9DC37) W373A”, for which the other: Tm with Anserine (setting [7]), with Ala-His (setting [7]), in the assay with His-Ser dipeptide (setting [7]), in the assay with Leu–Ala dipeptide (setting [7]), with His–Ala dipeptide (setting [7]) and with Lys–Val dipeptide (setting [7]) was 47 °C throughout. In addition, the other: Tm with Pro–Arg dipeptide (setting [7]) was 47 °C; in the assay with Arg–Pro dipeptide (setting [7]) it was 46 °C; with Ala–Ala dipeptide (setting [7]), 47 °C.

With “MFSD1-strep (mouse major facilitator superfamily domain containing 1 protein with N-terminal Twin-Strep-tag) (from UniProt Q9DC37) Y56A”, the other: Tm worked out at 42 °C with Anserine (setting [8]); 42 °C with Ala-His (setting [8]); 42 °C with His-Ser dipeptide (setting [8]); 45 °C with Leu–Ala dipeptide (setting [8]); 42 °C in the assay with His–Ala dipeptide (setting [8]); 45 °C in the assay with Lys–Val dipeptide (setting [8]). Moreover, the other: Tm came to 44 °C with Pro–Arg dipeptide (setting [8]), 42 °C with Arg–Pro dipeptide (setting [8]) and 41 °C with Ala–Ala dipeptide (setting [8]).

Regarding Pro–Arg dipeptide, in assay [3], the ΔTm at 5 mM ligand turned out to be 12.1 °C.
